Values joined by “and” are separate entries in the source; they are usually repeats but may differ in a detail not shown here. Equal entries are not always repeated.
How the values were obtained:
[1] = biological target: recombinant human IL-5 protein (human) (UniProt P05113); experiment: SPR, human IL-5 immobilized on chip, 1:1 fit
[2] = biological target: recombinant human IL-5 protein (human) (UniProt P05113); experiment: SPR, human IL-5 immobilized on CM5 chip, chimeric antibody as analyte, 1:1 global fit
[3] = biological target: recombinant human IL-5 protein (human) (UniProt P05113); experiment: cell-based or functional assay
[4] = biological target: recombinant human IL-5 protein (human) (UniProt P05113); experiment: FACS, biotin-IL-5 bound to CHOK1 hIL-5Ra/CSF2RB cells with Ab 0.0004 nM
[5] = biological target: recombinant human IL-5 protein (human) (UniProt P05113); experiment: FACS, biotin-IL-5 bound to CHOK1 hIL-5Ra/CSF2RB cells with Ab 0.0021 nM
[6] = biological target: recombinant human IL-5 protein (human) (UniProt P05113); experiment: FACS, biotin-IL-5 bound to CHOK1 hIL-5Ra/CSF2RB cells with Ab 0.0107 nM
[7] = biological target: recombinant human IL-5 protein (human) (UniProt P05113); experiment: FACS, biotin-IL-5 bound to CHOK1 hIL-5Ra/CSF2RB cells with Ab 0.0533 nM
[8] = biological target: recombinant human IL-5 protein (human) (UniProt P05113); experiment: FACS, biotin-IL-5 bound to CHOK1 hIL-5Ra/CSF2RB cells with Ab 0.2667 nM
[9] = biological target: recombinant human IL-5 protein (human) (UniProt P05113); experiment: FACS, biotin-IL-5 bound to CHOK1 hIL-5Ra/CSF2RB cells with Ab 1.3333 nM
[10] = biological target: recombinant human IL-5 protein (human) (UniProt P05113); experiment: FACS, biotin-IL-5 bound to CHOK1 hIL-5Ra/CSF2RB cells with Ab 6.6667 nM
[11] = biological target: recombinant human IL-5 protein (human) (UniProt P05113); experiment: FACS, biotin-IL-5 bound to CHOK1 hIL-5Ra/CSF2RB cells with Ab 33.3333 nM

Row | Binder | Kd [1] [nM] | koff [1] [s⁻¹] | kon [1] [M⁻¹ s⁻¹] | RLU, CTLL-2 cell proliferation stimulated by IL-5, Ab conc. 0.000170667 nM [3] | RLU, CTLL-2 cell proliferation stimulated by IL-5, Ab conc. 0.000853333 nM [3] | RLU, CTLL-2 cell proliferation stimulated by IL-5, Ab conc. 0.004266667 nM [3] | RLU, CTLL-2 cell proliferation stimulated by IL-5, Ab conc. 0.02133333 nM [3] | RLU, CTLL-2 cell proliferation stimulated by IL-5, Ab conc. 0.1066667 nM [3] | RLU, CTLL-2 cell proliferation stimulated by IL-5, Ab conc. 0.5333334 nM [3] | RLU, CTLL-2 cell proliferation stimulated by IL-5, Ab conc. 2.666667 nM [3] | RLU, CTLL-2 cell proliferation stimulated by IL-5, Ab conc. 13.33333 nM [3] | RLU, CTLL-2 cell proliferation stimulated by IL-5, Ab conc. 66.66666 nM [3] | RLU, CTLL-2 cell proliferation stimulated by IL-5, Ab conc. 3.41333E-05 nM [3] | RLU, TF-1 cell proliferation stimulated by IL-5, Ab conc. 0.00001 nM [3] | RLU, TF-1 cell proliferation stimulated by IL-5, Ab conc. 0.00003 nM [3] | RLU, TF-1 cell proliferation stimulated by IL-5, Ab conc. 0.00017 nM [3] | RLU, TF-1 cell proliferation stimulated by IL-5, Ab conc. 0.00085 nM [3] | RLU, TF-1 cell proliferation stimulated by IL-5, Ab conc. 0.00427 nM [3] | RLU, TF-1 cell proliferation stimulated by IL-5, Ab conc. 0.02133 nM [3] | RLU, TF-1 cell proliferation stimulated by IL-5, Ab conc. 0.10667 nM [3] | further results
1 | 69F2F3 (murine hybridoma lead antibody) (antibody, V domains shown) VH: QVQLKQSGPGLVQPSQSLSITCTVSGFSLSNYGVHWVRQSPGKGLEWLGVIWSGGSTDYNAAFKSRLSITKDNSKSQVVFRMNSLQTDDTATYYCARNKDFLDYWGQGTKFTVSS VL: DIVMTQSPSSLTVTAGEKVTMTCKSSQGLLNSGNQKNYLTWYQQKPGQPPKLLIYWASTRESGVPDRFTGSGSGTDFTLTISSVQAEDLAVYYCQNDYHFPLTFGAGTKLELK | 0.0221 | 8.14e-06 | 368000 | – | – | – | – | – | – | – | – | – | – | – | – | – | – | – | – | – | –
2 | 69F2F3 mouse-human chimeric antibody (antibody, human IgG4, V domains shown) VH: QVQLKQSGPGLVQPSQSLSITCTVSGFSLSNYGVHWVRQSPGKGLEWLGVIWSGGSTDYNAAFKSRLSITKDNSKSQVVFRMNSLQTDDTATYYCARNKDFLDYWGQGTKFTVSS VL: DIVMTQSPSSLTVTAGEKVTMTCKSSQGLLNSGNQKNYLTWYQQKPGQPPKLLIYWASTRESGVPDRFTGSGSGTDFTLTISSVQAEDLAVYYCQNDYHFPLTFGAGTKLELK | – | – | – | – | – | – | – | – | – | – | – | – | – | – | – | – | – | – | – | – | Kd [2]: < 0.12 nM; koff [2]: < 1e-05 s⁻¹; kon [2]: 81900 M⁻¹ s⁻¹
3 | 154F10G8 (murine hybridoma lead antibody) (antibody, V domains shown) VH: QVQLQQPGAELVKPGASVKLSCKASGYTFTSYWITWVKQRPGQGLEWIGDIYPGSGSTFYNEKFKSEATLTVDTSSSTAYMQLSSLTSEDSAVFYCSTETTLGYWGQGTTLTVSS VL: DVLMTQTPLSLPVSLGDQASISCRSSQSIVHNNGNTYLEWYLQKPGQSPKLLIYKVSNRFSGVPDRFSGSGSGTDFTLKISRVEAEDLGVYYCFQGSHVPFTFGSGTKLEIK | 0.158 | 6.65e-05 | 422000 | 57900 RLU and 56300 RLU | 64800 RLU and 54500 RLU | 64200 RLU and 64300 RLU | 56900 RLU and 52300 RLU | 36100 RLU and 30000 RLU | 21500 RLU and 20200 RLU | 19700 RLU and 17100 RLU | 16200 RLU and 14700 RLU | 11500 RLU and 10900 RLU | 58700 RLU and 61300 RLU | 108000 RLU and 113000 RLU | 110000 RLU and 115000 RLU | 114000 RLU and 108000 RLU | 99300 RLU and 103000 RLU | 76100 RLU and 79700 RLU | 54800 RLU and 57500 RLU | 42100 RLU and 51500 RLU | RLU, TF-1 cell proliferation stimulated by IL-5, Ab conc. 0.53333 nM [3]: 40600 RLU and 42300 RLU; RLU, TF-1 cell proliferation stimulated by IL-5, Ab conc. 2.66667 nM [3]: 34500 RLU and 42000 RLU; RLU, TF-1 cell proliferation stimulated by IL-5, Ab conc. 13.33333 nM [3]: 33800 RLU and 35300 RLU; Fluorescence intensity [4]: 90; Fluorescence intensity [5]: 91; Fluorescence intensity [6]: 91; Fluorescence intensity [7]: 92; Fluorescence intensity [8]: 86; Fluorescence intensity [9]: 66; Fluorescence intensity [10]: 43; Fluorescence intensity [11]: 34
4 | 102A2E11B6 (murine hybridoma lead antibody) (antibody, V domains shown) VH: QVQLRQSGPGLVQPSQSLSITCTVSGFSLTSYGVHWVRQSPGKGLEWLGVIWSGGSTDYNAVFMSRLSISKDSSKSQVFFKMNSLQTDDTAIYYCARNRYVLDYWGQGTSVTVSS VL: DIVMTQSPSSLSVSAGERVTMRCKSSQSLLTSGDQKNHLAWYQQKPGQPPKLLIYGASTRESGVPDRFTGSGSGTDFTLTITSVQAEDLAVYYCQNDHSFPLTFGAGTKLELK | 0.063 | 2.32e-05 | 369000 | – | – | – | – | – | – | – | – | – | – | – | – | – | – | – | – | – | –
5 | 102A2E11B6 mouse-human chimeric antibody (antibody, human IgG4, V domains shown) VH: QVQLRQSGPGLVQPSQSLSITCTVSGFSLTSYGVHWVRQSPGKGLEWLGVIWSGGSTDYNAVFMSRLSISKDSSKSQVFFKMNSLQTDDTAIYYCARNRYVLDYWGQGTSVTVSS VL: DIVMTQSPSSLSVSAGERVTMRCKSSQSLLTSGDQKNHLAWYQQKPGQPPKLLIYGASTRESGVPDRFTGSGSGTDFTLTITSVQAEDLAVYYCQNDHSFPLTFGAGTKLELK | – | – | – | – | – | – | – | – | – | – | – | – | – | – | – | – | – | – | – | – | Kd [2]: 0.221 nM; koff [2]: 2.73e-05 s⁻¹; kon [2]: 124000 M⁻¹ s⁻¹
6 | 147D7H2 (murine hybridoma lead antibody) (antibody, V domains shown) VH: EVQLQQSGAELVKPGASVKLSCTASGFNIKDYFIHWVKQRTEQGLEWIGRIDTEDGETKYAPKFQGKATITIDTSSNTAYLYFSSLTSEDTAMYYCARYGNYVAMDYWGQGTSVTVSS VL: QIVLTQSPALMSASPGEKVTMTCSASSSVSYMFWYQQKPSSSPKPWIYLTSKLASGVPARFSGSGSGTSYSLTISSVEAEDAATYYCQQWNSNPYTFGGGTKLEIK | < 0.0504 | < 1e-05 | 198000 | 56800 RLU and 61000 RLU | 56400 RLU and 57300 RLU | 50600 RLU and 55900 RLU | 49000 RLU and 45200 RLU | 26500 RLU and 26300 RLU | 16700 RLU and 15200 RLU | 13700 RLU and 14400 RLU | 12900 RLU and 13500 RLU | 10700 RLU and 11300 RLU | 58900 RLU and 59800 RLU | 111000 RLU and 112000 RLU | 111000 RLU and 113000 RLU | 116000 RLU and 112000 RLU | 105000 RLU | 90300 RLU and 86300 RLU | 72200 RLU and 55900 RLU | 42300 RLU and 43600 RLU | RLU, TF-1 cell proliferation stimulated by IL-5, Ab conc. 0.53333 nM [3]: 36200 RLU and 39400 RLU; RLU, TF-1 cell proliferation stimulated by IL-5, Ab conc. 2.66667 nM [3]: 39900 RLU and 38100 RLU; RLU, TF-1 cell proliferation stimulated by IL-5, Ab conc. 13.33333 nM [3]: 35500 RLU and 37500 RLU; Fluorescence intensity [4]: 96; Fluorescence intensity [5]: 93; Fluorescence intensity [6]: 88; Fluorescence intensity [7]: 90; Fluorescence intensity [8]: 74; Fluorescence intensity [9]: 55; Fluorescence intensity [10]: 36; Fluorescence intensity [11]: 31
7 | 151G3B11 (murine hybridoma lead antibody) (antibody, V domains shown) VH: EVHLQQSGAELVKPGASVKLSCTASGFNIKDYYMHWVKQRTEQGLEWIGRIDPEDGETKYAPKFQGQATITADTSSNTANLQLSSLTSEDTAVYYCARYGNFPDYWGPGTTLTVSS VL: QIVLTQSPALMSASPGEKVTMTCSASSSVSYMYWYQQKPRSSPKPWIYLTSKLASGVPARFSGSGSGTSYSLTISSMEAEDAATYYCQQWNSNPYTFGGGTKLEIK | 0.0186 | 9.04e-06 | 486000 | 58000 RLU and 54700 RLU | 56500 RLU and 56300 RLU | 53600 RLU and 50900 RLU | 39300 RLU and 38800 RLU | 14000 RLU and 12200 RLU | 12500 RLU and 11700 RLU | 8720 RLU and 8840 RLU | 7410 RLU and 6600 RLU | 6500 RLU and 5240 RLU | 60600 RLU and 48600 RLU | 104000 RLU and 105000 RLU | 95400 RLU and 98300 RLU | 86500 RLU and 91300 RLU | 72700 RLU and 70700 RLU | 51100 RLU and 54700 RLU | 49900 RLU and 47200 RLU | 40400 RLU | RLU, TF-1 cell proliferation stimulated by IL-5, Ab conc. 0.53333 nM [3]: 35100 RLU and 37700 RLU; RLU, TF-1 cell proliferation stimulated by IL-5, Ab conc. 2.66667 nM [3]: 37900 RLU and 34300 RLU; RLU, TF-1 cell proliferation stimulated by IL-5, Ab conc. 13.33333 nM [3]: 35300 RLU and 36600 RLU; Fluorescence intensity [4]: 93; Fluorescence intensity [5]: 86; Fluorescence intensity [6]: 87; Fluorescence intensity [7]: 84; Fluorescence intensity [8]: 69; Fluorescence intensity [9]: 46; Fluorescence intensity [10]: 34; Fluorescence intensity [11]: 30
